B1: SEQ ID NO 638 (designed binder)
chain: MGSWWEFEDRLWAIDRRLMALGGSEAELAVFEQMIAHFEQILQVYKGKGNPEVEALHFEAHAIGMELAAYRHN
B2: SEQ ID NO 628 (designed binder)
chain: MGSWWEFEQRLDAIETRLWALGGSEAELAYFEHIIADFEDELQIYKGKGNPEVEALGWEAFAIDGELTAYRHN
B3: SEQ ID NO 652 (designed binder)
chain: MGSWVEFYNRLDAIENRLWALGGSEAELAFFEELIAQFEFALQDYKGKGNPEVEALEDEADAIWEELMAYRHN
B4: SEQ ID NO 630 (designed binder)
chain: MGSWVEFYDRLEAIEIRLWALGGSEAELADFESFIAHFEDDLQAYKGKGNPEVEALMDEANAIVFELDAYRHN
B5: SEQ ID NO 650 (designed binder)
chain: MGSWWEFTDRLEAIEDRLWALGGSEAELAHFEDSIAQFEQELQWYKGKGNPEVEALADEADAIESELHAYRHN
B6: SEQ ID NO 644 (designed binder)
chain: MGSWEEFFFRLEAIDDRLYALGGSEAELALFEEVIAYFEQDLQWYKGKGNPEVEALYVEAYAIQEELYAYRHN
B7: SEQ ID NO 662 (designed binder)
chain: MGSWFEFLYRLDAIEDRLWALGGSEAELAEFEQEIAKFESELQSYKGKGNPEVEALEWEAHAIDMELEAYRHN
B8: SEQ ID NO 636 (designed binder)
chain: MGSWFEFQWRLEAIEDRLWALGGSEAELAEFETIIAGFEEQLQVYKGKGNPEVEALEEEAMAIQTELHAYRHN
B9: SEQ ID NO 640 (designed binder)
chain: MGSWAEFEDRLAAIERRLEALGGSEAELADFESSIAWFEPDLQYYKGKGNPEVEALMYEAEAIFSELYAYRHN
B10: SEQ ID NO 639 (designed binder)
chain: MGSWWEFLDRLEAIEYRLQALGGSEAELAVFEWEIAMFEDHLQGYKGKGNPEVEALHSEAHAIISELSAYRHN
B11: SEQ ID NO 656 (designed binder)
chain: MGSWEEFEQRLWAIDDRLWALGGSEAELAFFEYEIAEFEMDLQWYKGKGNPEVEALFYEAHAINEELWAYRHN
B12: SEQ ID NO 661 (designed binder)
chain: MGSWYEFFDRLDAIYDRLYALGGSEAELASFEAQIAEFEVELQSYKGKGNPEVEALEWEAWAIDEELYAYRHN
B13: SEQ ID NO 635 (designed binder)
chain: MGSWYEFYWRLEAIEERLWALGGSEAELAEFEKAIATFEDQLQTYKGKGNPEVEALETEALAIHAELEAYRHN
B14: SEQ ID NO 645 (designed binder)
chain: MGSWFEFEERLNAISWRLHALGGSEAELAYFEEDIAWFEDDLQFYKGKGNPEVEALENEAYAIWEELDAYRHN
B15: SEQ ID NO 649 (designed binder)
chain: MGSWWEFTDRLDAIFDRLWALGGSEAELAAFEESIAIFEQDLQYYKGKGNPEVEALEYEANAIQYELEAYRHN
B16: SEQ ID NO 629 (designed binder)
chain: MGSWFEFPYRLEAIEERLYALGGSEAELAQFEQFIAWFEMDLQDYKGKGNPEVEALWFEANAIVEELDAYRHN
B17: SEQ ID NO 659 (designed binder)
chain: MGSWDEFDTRLDAIFSRLYALGGSEAELAMFEGEIAEFEGSLQHYKGKGNPEVEALDFEAHAIDEELWAYRHN
B18: SEQ ID NO 633 (designed binder)
chain: MGSWYEFWRRLDAIEERLWALGGSEAELAMFETDIAGFEWMLQLYKGKGNPEVEALEHEAWAINSELDAYRHN
B19: SEQ ID NO 647 (designed binder)
chain: MGSWAEFDDRLEAIEYRLHALGGSEAELAWFEEGIAGFEHALQSYKGKGNPEVEALETEAGAINEELWAYRHN
B20: SEQ ID NO 667 (designed binder)
chain: MGSWEEFDDRLDAIEHRLWALGGSEAELADFEGSIAAFESWLQVYKGKGNPEVEALEAEAEAIADELWAYRHN
B21: SEQ ID NO 631 (designed binder)
chain: MGSWVEFWDRLDAIEERLWALGGSEAELAEFEFMIAMFEQHLQEYKGKGNPEVEALIPEAGAIDKELTAYRHN
B22: SEQ ID NO 653 (designed binder)
chain: MGSWEEFYYRLHAIDNRLWALGGSEAELAYFEWHIADFELELQDYKGKGNPEVEALSEEATAIFEELWAYRHN
B23: SEQ ID NO 632 (designed binder)
chain: MGSWDEFDARLWAIEERLWALGGSEAELAEFEFMIAAFEDVLQEYKGKGNPEVEALMGEANAIVMELDAYRHN
B24: SEQ ID NO 658 (designed binder)
chain: MGSWVEFEYRLDAISDRLWALGGSEAELAFFENEIASFESDLQFYKGKGNPEVEALMFEAEAIDDELHAYRHN
B25: SEQ ID NO 657 (designed binder)
chain: MGSWDEFHQRLAAIGDRLWALGGSEAELAYFEWEIATFEWDLQVYKGKGNPEVEALYFEATAIDEELMAYRHN
B26: SEQ ID NO 664 (designed binder)
chain: MGSWYEFESRLDAIVDRLWALGGSEAELAEFEYEIAKFEWELQDYKGKGNPEVEALNWEAGAIEFELYAYRHN
B27: SEQ ID NO 666 (designed binder)
chain: MGSWGEFMDRLEAIDYRLWALGGSEAELAWFESDIAEFEQELQMYKGKGNPEVEALWDEAMAIRDELFAYRHN
B28: SEQ ID NO 641 (designed binder)
chain: MGSWWEFYDRLTAIEARLWALGGSEAELADFEEGIADFEYDLQDYKGKGNPEVEALFWEAWAIQSELTAYRHN
B29: SEQ ID NO 655 (designed binder)
chain: MGSWEEFDERLWAISDRLWALGGSEAELAYFEGEIAYFEQNLQTYKGKGNPEVEALQTEALAIDTELWAYRHN
B30: SEQ ID NO 646 (designed binder)
chain: MGSWFEFEERLEAIIYRLWALGGSEAELAMFEESIAWFESDLQQYKGKGNPEVEALEYEAMAISKELKAYRHN
B31: SEQ ID NO 634 (designed binder)
chain: MGSWHEFIWRLDAIEERLWALGGSEAELAWFETEIATFEAQLQDYKGKGNPEVEALEWEAIAIAWELDAYRHN
B32: SEQ ID NO 648 (designed binder)
chain: MGSWDEFEERLQAIEYRLWALGGSEAELAWFEEVIAQFEYDLQKYKGKGNPEVEALSTEAQAIQDELWAYRHN
B33: SEQ ID NO 642 (designed binder)
chain: MGSWYEFEDRLAAIEARLWALGGSEAELADFEEEIAYFEHGLQWYKGKGNPEVEALESEAMAIIDELHAYRHN
B34: SEQ ID NO 654 (designed binder)
chain: MGSWREFHDRLFAIDGRLWALGGSEAELANFEWDIADFEFELQDYKGKGNPEVEALSWEADAIMQELGAYRHN
B35: SEQ ID NO 627 (designed binder)
chain: MGSWYEFEQRLGAIEERLWALGGSEAELAAFEDIIAYFEYQLQSYKGKGNPEVEALDEEAWAIDDELWAYRHN
B36: SEQ ID NO 651 (designed binder)
chain: MGSWVEFFWRLDAIEDRLWALGGSEAELANFEFEIADFEAWLQKYKGKGNPEVEALHSEADAIQLELRAYRHN
B37: SEQ ID NO 660 (designed binder)
chain: MGSWHEFDDRLDAIMSRLDALGGSEAELATFEAEIATFEFVLQLYKGKGNPEVEALLAEAYAIDWELEAYRHN
B38: SEQ ID NO 643 (designed binder)
chain: MGSWWEFSWRLEAIETRLDALGGSEAELAFFEMDIAWFEQDLQLYKGKGNPEVEALEEEAYAIYEELEAYRHN
B39: SEQ ID NO 665 (designed binder)
chain: MGSWYEFEDRLDAILYRLLALGGSEAELAWFERDIAFFESELQWYKGKGNPEVEALEWEAMAIDDELFAYRHN
B40: SEQ ID NO 663 (designed binder)
chain: MGSWLEFEDRLVAIDHRLFALGGSEAELAEFEEEIALFESYLQDYKGKGNPEVEALNWEADAIHAELYAYRHN
B41: SEQ ID NO 637 (designed binder)
chain: MGSWWEFEDRLWAIEQRLDALGGSEAELAVFENSIAKFEDMLQVYKGKGNPEVEALHEEADAIIWELYAYRHN

These binders were tested against T1, recombinant human CD123-Fc (human, UniProt P26951 19-305) (assay: phage ELISA, A450 target/A450 IgG1-Fc).
T1 construct: not shown: Fc part of CD123-Fc
T1 sequence: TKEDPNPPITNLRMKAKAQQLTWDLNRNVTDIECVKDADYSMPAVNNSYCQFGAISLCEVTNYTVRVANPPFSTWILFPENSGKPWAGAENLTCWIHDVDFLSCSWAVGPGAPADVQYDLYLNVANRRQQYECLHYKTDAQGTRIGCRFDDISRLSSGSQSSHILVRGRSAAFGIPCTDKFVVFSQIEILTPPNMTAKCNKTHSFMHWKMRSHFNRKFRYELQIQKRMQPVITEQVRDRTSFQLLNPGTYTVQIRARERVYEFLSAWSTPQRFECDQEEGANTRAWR
In short: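 The ELISA ratio divides target absorbance by IgG1-Fc absorbance and averages this over all screened wells holding a given clone. Phage came from phagemid colonies picked from panning output and were rescued with VCSM13 helper phage in 96-well format. After coating with 1.3 microg/ml goat anti-human IgG1-Fc antibody, wells were loaded with 5 nM recombinant human target or IgG1-Fc, then with 50 microl phage diluted 5× in ELISA blocking buffer, and bound phage were read at 450 nm using HRP-conjugated anti-M13 antibody.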

Going from B1 to B2, the ELISA_avg rises from 4.6 ratio to 4.7 ratio.

Compared with B3, B4 is lower in ELISA_avg: 6.9 ratio for the first, 4 ratio for the second.

Going from B5 to B6, the ELISA_avg falls from 16.6 ratio to 3.2 ratio.

Compared with B7, B8 is lower in ELISA_avg: 6.6 ratio for the first, 3.4 ratio for the second.

Going from B9 to B10, the ELISA_avg falls from 4.2 ratio to 3.1 ratio.

Compared with B11, B12 is lower in ELISA_avg: 5.7 ratio for the first, 4.7 ratio for the second.

Going from B13 to B14, the ELISA_avg rises from 3.7 ratio to 13 ratio.

Compared with B15, B16 is lower in ELISA_avg: 7.5 ratio for the first, 3.1 ratio for the second.

Compared with B17, B18 is lower in ELISA_avg: 4 ratio for the first, 3.6 ratio for the second.

Compared with B19, B20 is lower in ELISA_avg: 5.8 ratio for the first, 4 ratio for the second.

Going from B21 to B22, the ELISA_avg falls from 10 ratio to 3 ratio.

Compared with B23, B24 is higher in ELISA_avg: 4.3 ratio for the first, 6.5 ratio for the second.

Going from B25 to B26, the ELISA_avg rises from 3.7 ratio to 5.1 ratio.

Going from B27 to B28, the ELISA_avg falls from 4.6 ratio to 3.2 ratio.

Compared with B29, B30 is lower in ELISA_avg: 6.5 ratio for the first, 3.7 ratio for the second.

Compared with B31, B32 is higher in ELISA_avg: 3.3 ratio for the first, 3.8 ratio for the second.

Compared with B33, B34 is higher in ELISA_avg: 3.8 ratio for the first, 5.6 ratio for the second.

Compared with B35, B36 is lower in ELISA_avg: 10.6 ratio for the first, 4 ratio for the second.

Going from B37 to B38, the ELISA_avg falls from 7.7 ratio to 3.3 ratio.

Going from B39 to B40, the ELISA_avg falls from 4.3 ratio to 3.9 ratio.

With B41 the ELISA_avg was 4.4 ratio.
